From PMC4010543

What was measured:
[1] = TEPC-15 immunoblot, whole cell lysates; conditions: control: wild-type pgl (disaccharide Ac-Gal-diNAcBac), same pilE copy number
[2] = TEPC-15 immunoblot, pilF mutant lysates; conditions: glycan gained; control: pglC pilF (no glycan)

B1: PilE: pglC null (protein)
parent chain: MNTLQKGFTLIELMIVIAIVGILAAVALPAYQDYTARAQVSEAILLAEGQKSAVTEYYLNHGKWPENNTSAGVASPPSDIKGKYVKEVEVKNGVVTATMLSSGVNNEIKGKKLSLWARRENGSVKWFCGQPVTRTDDDTVADAKDGKEIDTKHLPSTCRDNFDAK
- other: phosphocholine modification of PilE ([1]; glycan lost): increases

B2: PilE: pglE ON pilF (trisaccharide) (protein)
parent chain: B1 parent chain
- other: phosphocholine modification of PilE [2]: no change

B3: PilE: pglE ON (trisaccharide) in 2xpilE and 3xpilE (protein)
parent chain: B1 parent chain
- other: phosphocholine modification of PilE ([1]; glycan changed form): decreases
